These results are taken from patent publication US20210107983A1 (Boehringer Ingelheim, published 2021).

For one assay, the target named is T1, Human CD3 E+G HuFc-6xHis (human).
T1 construct: also called HuCD3E+G-hFc; huCD3
Description: SPR, CD3E+G-hFc immobilized, binder analyte. In short, it runs like this:
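On a ProteOn XPR36, human and cyno CD3E+G-hFc were amine-coupled to a GLM chip at 0.4, 0.2 and 0.1 μg/mL in 10 mM acetate pH 4.5. B7H6/CD3 binding protein (0–100 nM) flowed in HBS-EP+ at 30 μL/min, with 300 s association and 600 s dissociation. Interspot and blank responses were subtracted.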
In general terms: In SPR one partner is held on a chip, and binding of the other changes the refractive index at the surface.

The next assay deals with T2, Human B7H1 (human, UniProt Q9NZQ7 20-239).
T2 construct: also called HuB7H1; huB7-H1
The experiment in a line: SPR, binder captured on Protein A/G, HuB7H1 analyte. In short, it runs like this:
(§1)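 B7H6/CD3 binder captured (~700 RU) on a Protein A/G CM5 surface in HBS-EP+. Human or cyno B7H6 injected at 0–100 nM and human B7H1 at 0 nM and 1 μM, 300 s association and 1200 s dissociation. Data double-referenced against the reference flow cell and blank.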

Assay [1] addresses T3, Cyno B7H6-His (cynomolgus monkey).
T3 construct: also called CyB7H6; cyB7-H6
T3 chain: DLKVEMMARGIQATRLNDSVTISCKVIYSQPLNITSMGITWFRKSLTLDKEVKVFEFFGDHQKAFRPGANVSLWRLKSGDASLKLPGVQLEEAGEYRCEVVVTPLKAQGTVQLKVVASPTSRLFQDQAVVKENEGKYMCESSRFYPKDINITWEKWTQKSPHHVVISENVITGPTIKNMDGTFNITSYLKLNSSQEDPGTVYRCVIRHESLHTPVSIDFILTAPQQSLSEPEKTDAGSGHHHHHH
Description: ratio of SPR KDs cyno/human.

In assay [2] the target is T3, Cyno B7H6-His. Description: SPR, binder captured on Protein A/G, B7H6 analyte. The method in brief: as §1
Assay [3] has as its target T4, trypsin inhibitor from Glycine max soybean (Glycine max (soybean)).
T4 construct: unrelated negatively charged protein, amine-coupled to the chip
The experiment in a line: SPR, 1 µM binder over immobilized trypsin inhibitor. In short, it runs like this: (§2)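 Non-specific binding tested with samples at 1 μM in HBS-EP at 25 °C, 5 μL/min, over lysozyme or trypsin inhibitor amine-coupled to CM5 chip (3000–5000 RU). Association 10 min, dissociation 15 min.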

Assay [4] concerns the target T5, chicken egg white lysozyme (chicken, UniProt P00698 19-147).
T5 construct: unrelated positively charged protein, amine-coupled to the chip; also called Lysozyme (positive)
Description: SPR, 1 µM binder over immobilized lysozyme. In short, it runs like this: as §2

T5 sequence (P00698 19-147): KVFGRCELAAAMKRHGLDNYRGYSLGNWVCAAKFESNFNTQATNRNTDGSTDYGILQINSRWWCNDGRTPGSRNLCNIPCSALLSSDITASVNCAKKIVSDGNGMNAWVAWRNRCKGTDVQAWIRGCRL
T1 sequence (chain, as listed by the source limits assumed): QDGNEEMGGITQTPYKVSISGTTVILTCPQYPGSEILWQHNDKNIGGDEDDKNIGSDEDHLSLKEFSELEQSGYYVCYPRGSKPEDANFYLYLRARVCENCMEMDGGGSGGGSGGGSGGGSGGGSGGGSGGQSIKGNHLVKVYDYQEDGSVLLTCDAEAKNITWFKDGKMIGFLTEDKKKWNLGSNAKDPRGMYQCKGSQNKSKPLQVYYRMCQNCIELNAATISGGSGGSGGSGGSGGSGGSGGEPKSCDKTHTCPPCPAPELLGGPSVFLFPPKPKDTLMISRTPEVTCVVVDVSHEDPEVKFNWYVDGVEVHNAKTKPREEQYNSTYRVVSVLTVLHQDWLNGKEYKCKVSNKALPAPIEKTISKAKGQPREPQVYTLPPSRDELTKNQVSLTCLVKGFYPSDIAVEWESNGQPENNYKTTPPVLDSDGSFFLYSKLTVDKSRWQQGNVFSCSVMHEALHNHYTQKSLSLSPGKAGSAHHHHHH
T4 sequence (P01070 25-205): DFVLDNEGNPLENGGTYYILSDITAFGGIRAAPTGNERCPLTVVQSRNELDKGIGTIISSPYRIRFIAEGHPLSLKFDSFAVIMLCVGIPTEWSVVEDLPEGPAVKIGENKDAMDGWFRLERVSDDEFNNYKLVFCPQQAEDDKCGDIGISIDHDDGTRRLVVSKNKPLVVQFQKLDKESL
T2 sequence (Q9NZQ7 other isoform, or with tags, fused parts or gaps limits assumed): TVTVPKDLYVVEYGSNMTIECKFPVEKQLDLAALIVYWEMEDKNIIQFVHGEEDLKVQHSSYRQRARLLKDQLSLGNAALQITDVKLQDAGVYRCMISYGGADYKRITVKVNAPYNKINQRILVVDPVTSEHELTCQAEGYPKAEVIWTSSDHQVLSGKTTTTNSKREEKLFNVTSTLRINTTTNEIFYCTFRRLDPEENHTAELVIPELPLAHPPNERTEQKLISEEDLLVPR

B1: B7H6#18/CD3#1 (bispecific antibody, human IgG1, kappa, lambda, L234A L235A)
chain 1: DIQMTQSPSSLSASVGDRVTITCKASQNVGKYVAWYQQKPGKAPKSLIYSASNRYDAVPSRFSGSGSGTDFTLTISSLQPEDFTTYYCQQYISYPLTFGAGTKLEIKRTVAAPSVFIFPPSDEQLKSGTASVVCLLNNFYPREAKVQWKVDNALQSGNSQESVTEQDSKDSTYSLSSTLTLSKADYEKHKVYACEVTHQGLSSPVTKSFNRGECGGGGSEGKSSGSGSESKSTEGKSSGSGSESKSTGGGGSQVQLVQSGAEVKKPGASVKVSCKASGYTFTSYWMNWMRQAPGQGLEWMGGIYLSGDSTDYNEKFKGRVTMTVDTSTSTVYMELSSLRSEDTAVYYCTRRGDYFGDFWGQGTLVTVSSASTKGPSVFPLAPSSKSTSGGTAALGCLVKDYFPEPVTVSWNSGALTSGVHTFPAVLQSSGLYSLSSVVTVPSSSLGTQTYICNVNHKPSNTKVDKRVEPKSCDKTHTCPPCPAPEAAGGPSVFLFPPKPKDTLMISRTPEVTCVVVDVSHEDPEVKFNWYVDGVEVHNAKTKPREEQYNSTYRVVSVLTVLHQDWLNGKEYKCKVSNKALPAPIEKTISKAKGQPREPQVYTLPPSREEMTKNQVSLWCLVKGFYPSDIAVEWESNGQPENNYKTTPPVLDSDGSFFLYSKLTVDKSRWQQGNVFSCSVMHEALHNHYTQKSLSLSPG
chain 2: EAVVTQEPSLTVSPGGTVTLTCRSSTGAVTTSNYANWVQEKPGQLPRGLIGGTNKRAPWVPARFSGSLLGGKAALTLSGAQPEDEAEYFCALWYSNLWVFGGGTKLTVLGQPKAAPSVTLFPPSSEELQANKATLVCLISDFYPGAVKVAWKADGSPVNTGVETTTPSKQSNNKYAASSYLSLTPEQWKSHRSYSCQVTHEGSTVEKTVAPAECSGGGGSEGKSSGSGSESKSTEGKSSGSGSESKSTGGGGSEVQLVESGGGLVQPGGSLKLSCAASGFTFNTYAMNWVRQAPGKGLEWVARIRSKYNNYATYYADSVKDRFTISRDDSKNTAYLQMNNLKTEDTAVYYCVRHGNFGNSYVSWFAYWGQGTLVTVSAASTKGPSVFPLAPSSKSTSGGTAALGCLVKDYFPEPVTVSWNSGALTSGVHTFPAVLQSSGLYSLSSVVTVPSSSLGTQTYICNVNHKPSNTKVDKRVEPKSCDKTHTCPPCPAPEAAGGPSVFLFPPKPKDTLMISRTPEVTCVVVDVSHEDPEVKFNWYVDGVEVHNAKTKPREEQYNSTYRVVSVLTVLHQDWLNGKEYKCKVSNKALPAPIEKTISKAKGQPREPQVYTLPPSREEMTKNQVSLSCAVKGFYPSDIAVEWESNGQPENNYKTTPPVLDSDGSFFLVSKLTVDKSRWQQGNVFSCSVMHEALHNRFTQKSLSLSPG
notes: scFab-Fc heterodimer, one B7H6 chain and one CD3 chain
A word on the Kd: it is the constant that tells how readily two partners part at equilibrium. Read a low Kd as higher affinity. Regarding B1, the dissociation constant (Kd) stood at 3.9 nM with Human CD3 E+G HuFc-6xHis and 3.3 nM with Cyno B7H6-His [2]. The binding result with Human B7H1 was “no binding (tested: 1 µM)”. In the assay with Cyno B7H6-His [1], the “cy/hu B7-H6” value worked out at 2.3. The “Non-specific binding (RU)” value in assay [3] came to 32.8 RU; in assay [4], 6.6 RU.

B2: B7H6#19/CD3#1 (bispecific antibody, human IgG1, kappa, lambda, L234A L235A)
chain 1: DIQMTQSPSSLSASVGDRVTITCKASQNVGKYVAWYQQKPGKAPKSLIYSASNRYDGVPSRFSGSGSGTDFTLTISSLQPEDFTTYYCQQYISYPLTFGAGTKLEIKRTVAAPSVFIFPPSDEQLKSGTASVVCLLNNFYPREAKVQWKVDNALQSGNSQESVTEQDSKDSTYSLSSTLTLSKADYEKHKVYACEVTHQGLSSPVTKSFNRGECGGGGSEGKSSGSGSESKSTEGKSSGSGSESKSTGGGGSQVQLVQSGAEVKKPGASVKVSCKASGYTFTSYWMNWVKQAPGQGLEWMGGIYLSGESTDYNEKFKGKATMTVDTSTSTVYMELSSLRSEDTAVYYCTRRGDYFGDFWGQGTLVTVSSASTKGPSVFPLAPSSKSTSGGTAALGCLVKDYFPEPVTVSWNSGALTSGVHTFPAVLQSSGLYSLSSVVTVPSSSLGTQTYICNVNHKPSNTKVDKRVEPKSCDKTHTCPPCPAPEAAGGPSVFLFPPKPKDTLMISRTPEVTCVVVDVSHEDPEVKFNWYVDGVEVHNAKTKPREEQYNSTYRVVSVLTVLHQDWLNGKEYKCKVSNKALPAPIEKTISKAKGQPREPQVYTLPPSREEMTKNQVSLWCLVKGFYPSDIAVEWESNGQPENNYKTTPPVLDSDGSFFLYSKLTVDKSRWQQGNVFSCSVMHEALHNHYTQKSLSLSPG
chain 2: EAVVTQEPSLTVSPGGTVTLTCRSSTGAVTTSNYANWVQEKPGQLPRGLIGGTNKRAPWVPARFSGSLLGGKAALTLSGAQPEDEAEYFCALWYSNLWVFGGGTKLTVLGQPKAAPSVTLFPPSSEELQANKATLVCLISDFYPGAVKVAWKADGSPVNTGVETTTPSKQSNNKYAASSYLSLTPEQWKSHRSYSCQVTHEGSTVEKTVAPAECSGGGGSEGKSSGSGSESKSTEGKSSGSGSESKSTGGGGSEVQLVESGGGLVQPGGSLKLSCAASGFTFNTYAMNWVRQAPGKGLEWVARIRSKYNNYATYYADSVKDRFTISRDDSKNTAYLQMNNLKTEDTAVYYCVRHGNFGNSYVSWFAYWGQGTLVTVSAASTKGPSVFPLAPSSKSTSGGTAALGCLVKDYFPEPVTVSWNSGALTSGVHTFPAVLQSSGLYSLSSVVTVPSSSLGTQTYICNVNHKPSNTKVDKRVEPKSCDKTHTCPPCPAPEAAGGPSVFLFPPKPKDTLMISRTPEVTCVVVDVSHEDPEVKFNWYVDGVEVHNAKTKPREEQYNSTYRVVSVLTVLHQDWLNGKEYKCKVSNKALPAPIEKTISKAKGQPREPQVYTLPPSREEMTKNQVSLSCAVKGFYPSDIAVEWESNGQPENNYKTTPPVLDSDGSFFLVSKLTVDKSRWQQGNVFSCSVMHEALHNRFTQKSLSLSPG
notes: as for B1
On to B2, for which the Kd with Human CD3 E+G HuFc-6xHis is 4 nM; in the assay with Cyno B7H6-His [2] it was 5.1 nM. In addition, the binding result in the assay with Human B7H1 was “no binding (tested: 1 µM)”. In addition, the “cy/hu B7-H6” value in the assay with Cyno B7H6-His [1] worked out at 3.1. The “Non-specific binding (RU)” value was 40.3 RU in assay [3] and 8.2 RU in assay [4].

B3: B7H6#20/CD3#1 (bispecific antibody, human IgG1, kappa, lambda, L234A L235A)
chain 1: DIQMTQSPSSLSASVGDRVTITCKASQNVGKYVAWYQQKPGKAPKSLIYSASNRYDAVPSRFSGSGSGTDFTLTISSLQPEDFTTYYCQQYISYPLTFGAGTKLEIKRTVAAPSVFIFPPSDEQLKSGTASVVCLLNNFYPREAKVQWKVDNALQSGNSQESVTEQDSKDSTYSLSSTLTLSKADYEKHKVYACEVTHQGLSSPVTKSFNRGECGGGGSEGKSSGSGSESKSTEGKSSGSGSESKSTGGGGSQVQLVQSGAEVKKPGASVKVSCKASGYTFTSYWMNWVKQAPGQGLEWMGGIYLSGDSTDYNEKFKGKATMTVDTSTSTVYMELSSLRSEDTAVYYCTRRGDYFGDFWGQGTLVTVSSASTKGPSVFPLAPSSKSTSGGTAALGCLVKDYFPEPVTVSWNSGALTSGVHTFPAVLQSSGLYSLSSVVTVPSSSLGTQTYICNVNHKPSNTKVDKRVEPKSCDKTHTCPPCPAPEAAGGPSVFLFPPKPKDTLMISRTPEVTCVVVDVSHEDPEVKFNWYVDGVEVHNAKTKPREEQYNSTYRVVSVLTVLHQDWLNGKEYKCKVSNKALPAPIEKTISKAKGQPREPQVYTLPPSREEMTKNQVSLWCLVKGFYPSDIAVEWESNGQPENNYKTTPPVLDSDGSFFLYSKLTVDKSRWQQGNVFSCSVMHEALHNHYTQKSLSLSPG
chain 2: EAVVTQEPSLTVSPGGTVTLTCRSSTGAVTTSNYANWVQEKPGQLPRGLIGGTNKRAPWVPARFSGSLLGGKAALTLSGAQPEDEAEYFCALWYSNLWVFGGGTKLTVLGQPKAAPSVTLFPPSSEELQANKATLVCLISDFYPGAVKVAWKADGSPVNTGVETTTPSKQSNNKYAASSYLSLTPEQWKSHRSYSCQVTHEGSTVEKTVAPAECSGGGGSEGKSSGSGSESKSTEGKSSGSGSESKSTGGGGSEVQLVESGGGLVQPGGSLKLSCAASGFTFNTYAMNWVRQAPGKGLEWVARIRSKYNNYATYYADSVKDRFTISRDDSKNTAYLQMNNLKTEDTAVYYCVRHGNFGNSYVSWFAYWGQGTLVTVSAASTKGPSVFPLAPSSKSTSGGTAALGCLVKDYFPEPVTVSWNSGALTSGVHTFPAVLQSSGLYSLSSVVTVPSSSLGTQTYICNVNHKPSNTKVDKRVEPKSCDKTHTCPPCPAPEAAGGPSVFLFPPKPKDTLMISRTPEVTCVVVDVSHEDPEVKFNWYVDGVEVHNAKTKPREEQYNSTYRVVSVLTVLHQDWLNGKEYKCKVSNKALPAPIEKTISKAKGQPREPQVYTLPPSREEMTKNQVSLSCAVKGFYPSDIAVEWESNGQPENNYKTTPPVLDSDGSFFLVSKLTVDKSRWQQGNVFSCSVMHEALHNRFTQKSLSLSPG
notes: as for B1
Consider B3, for which the Kd with Human CD3 E+G HuFc-6xHis was found to be 4 nM; with Cyno B7H6-His [2] it was 4.9 nM. Moreover, in the assay with Human B7H1, the binding result is listed as “no binding (tested: 1 µM)”. For the same molecule, in the assay with Cyno B7H6-His [1], the “cy/hu B7-H6” value is 4.6. The entries for the “Non-specific binding (RU)” value in assay [3] and in assay [4] were 48.4 RU and 9.8 RU, respectively.
